# Reference: US12723255B2, “Herbicide tolerance genes and methods of use thereof” (priority 2014, dated 2026)
# Like-named read-outs stand apart in the source and are kept apart here.
# B1: Wild-type RdpA: wild-type RdpA enzyme from Sphingobium herbicidovorans, SEQ ID NO:60 (protein)
# chain: MHAALSPLSQRFERIAVQPLTGVLGAEITGVDLREPLDDSTWNEILDAFHTYQVIYFPGQAITNEQHIAFSRRFGPVDPVPLLKSIEGYPEVQMIRREANESGRVIGDDWHTDSTFLDAPPAAVVMRAIDVPEHGGDTGFLSMYTAWETLSPTMQATIEGLNVVHSATRVFGSLYQAQNRRFSNTSVKVMDVDAGDRETVHPLVVTHPGSGRKGLYVNQVYCQRIEGMTDAESKPLLQFLYEHATRFDFTCRVRWKKDQVLVWDNLCTMHRAVPDYAGKFRYLTRTTVGGVRPAR
# modifications: Sphingobium herbicidovorans
# Legend:
# [1] = enzyme activity assay at 23° C. with purified enzyme; format: biochemical; conditions: wild-type set at 100%
# Description: The enzyme activity of MON-HT protein variants with haloxyfop, fenoxaprop, fluazifop, and dichlorprop as substrates was determined using the enzyme activity assay conducted at 23° C. with purified enzyme. The activity was recorded as the maximum activity as a percentage of the wild-type enzyme's activity, which was set at 100%.
# [2] = format: physicochemical
# Description: A protein melting analysis was also conducted. For the protein melting determinations, purified enzyme was added to 96-well microtiter plates in standard storage buffer (30 mM Tris pH7.5, 150 mM NaCl) with or without 50 uM Fe2+ and 1.0 mM aKG. Protein unfolding was then detected with SYPRO® orange protein gel stain (Invitrogen™ catalog #S6651, Life Technologies, Grand Island, NY) in a BioRad CFX96™ Real time PCR machine (BioRad, Hercules, CA) with readings taken between 10° C. to 95° C. in 0.5° C. steps. […] In contrast, 50 uM Fe2+ and 1.0 mM aKG had little effect on the stability of any of the engineered proteins. MON-HT55, MON-HT3, MON-HT4, MON-HT6, and MON-HT10 had melting temperatures in the range of 41° C. to 48° C., which is below the melting temperature of the wild-type enzyme. MON-HT1, MON-HT2, MON-HT5, MON-HT7, MON-HT8, and MON-HT9 had melting temperatures between 58° C. and 67° C., which is 8° C. to 17° C. higher than the wild-type enzyme. For MON-HT7 and MON-HT1, the difference in melting point was 11° C. in buffer without Fe2+ and aKG and 8° C. in buffer with Fe2+ and aKG. This was surprising since there are only four amino acid differences between the two enzymes.
# A protein melting analysis was conducted as detailed above. The melting temperatures of MON-HT13, MON-HT15, and MON-HT17 was similar to the melting temperature of MON-HT1 with T1/2 in buffer in the range of 55-58° C., and with T1/2 in buffer plus Fe2+ and aKG in the range of 60-62° C.
# [3] = enzyme activity assay at 23° C. with purified enzyme; format: biochemical; conditions: percentage of wild-type RdpA, set at 100%
# Description: The enzyme activity of MON-HT protein variants with triclopyr, fluroxypyr, MCPA, MCPB, mecoprop, as substrates was determined using the enzyme activity assay conducted at 23° C. with purified enzyme. The activity was recorded as the maximum activity as a percentage of the wild-type RdpA enzyme's activity, which was set at 100%. […] The enzymatic activity with mecoprop as a substrate was reduced for each of the MON-HT1, MON-HT13, MON-HT15, and MON-HT17 variants compared to the wild-type RdpA enzyme. An unexpected result was that enzymatic activity with MCPA as a substrate was roughly 6-fold greater for MON-HT1, and approximately 10-fold greater for MON-HT13, MON-HT15, and MON-HT17 compared to the wild-type RdpA enzyme.
# [4] = format: biochemical; conditions: substrate quizalofop-P
# Description: To analyze these engineered proteins for activity in higher temperatures, the in vitro enzyme assay in Example 1 was modified to specify pre-heating all of the assay components to the desired temperature for 5 minutes before combining the components and then maintaining the reaction at the desired temperature for the duration of the reaction. To normalize the assay measurements, quizalofop-P was used as the substrate for the reaction and enzyme activity was normalized based on the 25° C. readings. Using these parameters, the temperature at which the enzyme activity was half of maximum (T1/2) was calculated. The T1/2 for MON-HT55 was calculated to be 29° C., and the T1/2 for wild-type RdpA was calculated to be 38° C. (FIG. 2A).
# Enzyme activity over a range of temperatures was analyzed in-depth for MON-HT1, MON-HT2, MON-HT7, and MON-HT8. These assays were conducted as described above. Quizalofop-P or 2,4-D was used as the substrate for these reactions and activity was normalized based on the activity of the wild-type enzyme at 25° C. The activity curves obtained are presented in FIG. 2B (with quizalofop-P as the substrate) and FIG. 2C (with 2,4-D as the substrate). Using quizalofop-P as the substrate, MON-HT55 was the most temperature sensitive, with a T1/2 of 29° C. […] MON-HTI was slightly less temperature sensitive, with a T1/2 about 1° C. higher than the wild-type enzyme.
# [5] = kinetic analysis, non-endpoint assay at 23° C.; format: biochemical
# From the text: For the fifth screen, recombinant protein for each of the eleven engineered proteins was produced and purified for an in-depth biochemical analysis. This biochemical analysis included: (1) kinetic analysis (Vmax and Km), (2) activity assays over a range of temperatures, (3) protein melting analysis, (4) activity on additional AOPP herbicides substrates, and (5) mass spectrometry analysis on peptides to confirm identity. The biochemical analyses were also done with purified recombinant wild-type protein and MON-HT55 protein for comparison. For the kinetic analysis, a non-endpoint assay was conducted at 23° C. with either quizalofop-P or 2,4-D as substrate. The recombinant proteins for these assays were produced in bacteria and purified using a 6-His tag fused at the C-terminal end of the protein. Results of the kinetic analysis with either quizalofop-P or 2,4-D as substrate are presented for ten of the engineered proteins, wild-type protein, and MON-HT55 protein in Table 7 (standard error is shown in parenthetical). Vmax is expressed as specific activity, umol herbicide product mg enzyme-1 min-1; Km expressed as mM herbicide substrate. […] The differentiation of the protein kinetics for MON-HTI and MON-HT7 were surprising because there are only four amino acid differences between MON-HT1 and MON-HT7. Specifically, MON-HT1 has the following amino acids at the indicated position: 182; F105; T112; and V273, and MON-HT7 has the following amino acids at the indicated position: L82; V105; S112; and A273.
# Kinetic analysis using a non-endpoint assay was conducted at 23° C. with either quizalofop-P or 2,4-D as substrate, as detailed above for purified protein of the wild-type enzyme, MON-HT1, MON-HT13, MON-HT15, and MON-HT17.
molecule,measurement,setting,value
B1,"maximum activity as a percentage of the wild-type enzyme's activity, Haloxyfop",[1]; purified enzyme,100%
same,"maximum activity as a percentage of the wild-type enzyme's activity, Dichlorprop",[1],100%
same,"maximum activity as a percentage of the wild-type enzyme's activity, Fenoxaprop",[1],100%
same,"maximum activity as a percentage of the wild-type enzyme's activity, Fluazifop",[1],100%
same,"Melting temp, Buffer",[2]; Table 11 series,43 °C
same,"Melting temp, Buffer plus Fe2+ and aKG",[2]; Table 11 series,53 °C
same,"T1/2, temperature where 50% of the protein was unfolded, Buffer plus Fe2+ and aKG",[2]; buffer,50 °C
same,"T1/2, temperature where 50% of the protein was unfolded, Buffer","[2]; buffer, pH 7.5",42 °C
same,MCPA Km,[3],100%
same,MCPA Vmax,[3],100%
same,Mecoprop Km,[3],100%
same,Mecoprop Vmax,[3],100%
same,activity of the wild-type enzyme at 46° C. and 47° C.,[4],completely inactive
same,inactivation of the wild-type enzyme at 42° C. and 41° C.,[4],90 % inactive
same,Vmax Quizalofop,"[5]; 23° C., purified His-tagged protein, standard error in parenthetical",1.38 (−0.06) umol herbicide product mg enzyme-1 min-1
same,Km,"[5]; 23° C., purified His-tagged protein, standard error in parenthetical, read-out: Km Quizalofop",270 µM
same,"Vmax 2,4-D","[5]; Table 10 series, unit as defined",0.25 (0.01) umol herbicide product mg enzyme-1 min-1
same,Km,"[5]; Table 10 series, unit as defined, read-out: Km 2,4-D",130 µM
same,Vmax Quizalofop,"[5]; Table 10 series, 23° C., unit as defined",2.76 (0.11) umol herbicide product mg enzyme-1 min-1
same,Km,"[5]; Table 10 series, 23° C., unit as defined, read-out: Km Quizalofop",90 µM
same,"Vmax 2,4-D","[5]; standard error in parenthetical, NDB = activity not robust enough for kinetic characterization",0.10 (−0.01) umol herbicide product mg enzyme-1 min-1
same,Km,"[5]; standard error in parenthetical, NDB = activity not robust enough for kinetic characterization, read-out: Km 2,4-D",30 µM
